Sequences and labels used below:
B1: POU domain, class 2, transcription factor 3, residues 186 to 260; numbered along this chain, Q9UKI9 (parent)
chain: SDLEELEKFAKTFKQRRIKLGFTQGDVGLAMGKLYGNDFSQTTISRFEALNLSFKNMCKLKPLLEKWLNDAESSP

± gives the uncertainty stated by the source.

The variants in this series derive from B1. Put plainly: abundance fitness (aPCA) (normalised: wild type 0, dead -1); higher = more abundant; growth selection in yeast, the domain comes from the species named. The note with it: Homo sapiens.
Regarding SDLEELEKFAKTFKQRRIKLGFTQGDVGLAMGKLYGNDFSQTTISRFEALNLSFVNMCKLKPLLEKWLNDAESSP [K55V], the abundance fitness was -0.006 ± 0.034.

In the case of SDLEELEKFAKTFKQRRIKLGFTQGDVGLAMGKLYGNDFSQTTISRFEALNLSFSNMCKLKPLLEKWLNDAESSP [K55S], the abundance fitness amounted to 0.011 ± 0.036.

Turning to SDLEELEKFAKTFKQRRIKLGFTQGDVGLAMGKLYGNDFSQTTISRFEALNLSFGNMCKLKPLLEKWLNDAESSP [K55G], the abundance fitness was found to be 0.009 ± 0.029.

Regarding SDLEELEKFAKTFKQRRIKLGFTQGDVGLAMGKLYGNDFSQTTISRFEALNLSFWNMCKLKPLLEKWLNDAESSP [K55W], the abundance fitness was -0.093 ± 0.042.

Take SDLEELEKFAKTFKQRRIKLGFTQGDVGLAMGKLYGNDFSQTTISRFEALNLSFCNMCKLKPLLEKWLNDAESSP [K55C]: the abundance fitness was -0.033 ± 0.078.

SDLEELEKFAKTFKQRRIKLGFTQGDVGLAMGKLYGNDFSQTTISRFEALNLSWKNMCKLKPLLEKWLNDAESSP [F54W]: the abundance fitness is -0.024 ± 0.032.

For the variant SDLEELEKFAKTFKQRRIKLGFTQGDVGLAMGKLYGNDFSQTTISRFEALNLSRKNMCKLKPLLEKWLNDAESSP [F54R], the abundance fitness came to 0.024 ± 0.026.

For SDLEELEKFAKTFKQRRIKLGFTQGDVGLAMGKLYGNDFSQTTISRFEALNLSMKNMCKLKPLLEKWLNDAESSP [F54M], the abundance fitness was 0.057 ± 0.049.

As to SDLEELEKFAKTFKQRRIKLGFTQGDVGLAMGKLYGNDFSQTTISRFEALNLSQKNMCKLKPLLEKWLNDAESSP [F54Q], the abundance fitness is -0.025 ± 0.047.

Turning to SDLEELEKFAKTFKQRRIKLGFTQGDVGLAMGKLYGNDFSQTTISRFEALNLSLKNMCKLKPLLEKWLNDAESSP [F54L], the abundance fitness was -0.041 ± 0.033.

For the variant SDLEELEKFAKTFKQRRIKLGFTQGDVGLAMGKLYGNDFSQTTISRFEALNLSTKNMCKLKPLLEKWLNDAESSP [F54T], the abundance fitness was 0.013 ± 0.041.

On to SDLEELEKFAKTFKQRRIKLGFTQGDVGLAMGKLYGNDFSQTTISRFEALNLSYKNMCKLKPLLEKWLNDAESSP [F54Y], for which the abundance fitness stood at 0.115 ± 0.058.

With SDLEELEKFAKTFKQRRIKLGFTQGDVGLAMGKLYGNDFSQTTISRFEALNLSNKNMCKLKPLLEKWLNDAESSP [F54N], the abundance fitness was -0.037 ± 0.072.

Take SDLEELEKFAKTFKQRRIKLGFTQGDVGLAMGKLYGNDFSQTTISRFEALNLSPKNMCKLKPLLEKWLNDAESSP [F54P]: the abundance fitness is -0.041 ± 0.042.

Consider SDLEELEKFAKTFKQRRIKLGFTQGDVGLAMGKLYGNDFSQTTISRFEALNLSSKNMCKLKPLLEKWLNDAESSP [F54S], for which the abundance fitness is -0.059 ± 0.034.

On to SDLEELEKFAKTFKQRRIKLGFTQGDVGLAMGKLYGNDFSQTTISRFEALNLSVKNMCKLKPLLEKWLNDAESSP [F54V], for which the abundance fitness is -0.012 ± 0.03.

Take SDLEELEKFAKTFKQRRIKLGFTQGDVGLAMGKLYGNDFSQTTISRFEALNLSKKNMCKLKPLLEKWLNDAESSP [F54K]: the abundance fitness was 0.014 ± 0.043.

On to SDLEELEKFAKTFKQRRIKLGFTQGDVGLAMGKLYGNDFSQTTISRFEALNLSIKNMCKLKPLLEKWLNDAESSP [F54I], for which the abundance fitness was -0.006 ± 0.054.

In the case of SDLEELEKFAKTFKQRRIKLGFTQGDVGLAMGKLYGNDFSQTTISRFEALNLSFKGMCKLKPLLEKWLNDAESSP [N56G], the abundance fitness is -0.05 ± 0.029.

Take SDLEELEKFAKTFKQRRIKLGFTQGDVGLAMGKLYGNDFSQTTISRFEALNLSFKTMCKLKPLLEKWLNDAESSP [N56T]: the abundance fitness stood at 0.093 ± 0.048.

Consider SDLEELEKFAKTFKQRRIKLGFTQGDVGLAMGKLYGNDFSQTTISRFEALNLSFKEMCKLKPLLEKWLNDAESSP [N56E], for which the abundance fitness was -0.001 ± 0.039.

SDLEELEKFAKTFKQRRIKLGFTQGDVGLAMGKLYGNDFSQTTISRFEALNLSFKFMCKLKPLLEKWLNDAESSP [N56F]: the abundance fitness was -0.058 ± 0.065.

SDLEELEKFAKTFKQRRIKLGFTQGDVGLAMGKLYGNDFSQTTISRFEALNLSFKDMCKLKPLLEKWLNDAESSP [N56D]: the abundance fitness was 0.008 ± 0.051.

Take SDLEELEKFAKTFKQRRIKLGFTQGDVGLAMGKLYGNDFSQTTISRFEALNLSFKVMCKLKPLLEKWLNDAESSP [N56V]: the abundance fitness is -0.082 ± 0.033.

SDLEELEKFAKTFKQRRIKLGFTQGDVGLAMGKLYGNDFSQTTISRFEALNLSFKKMCKLKPLLEKWLNDAESSP [N56K]: the abundance fitness is -0.024 ± 0.045.

For SDLEELEKFAKTFKQRRIKLGFTQGDVGLAMGKLYGNDFSQTTISRFEALNLSFKWMCKLKPLLEKWLNDAESSP [N56W], the abundance fitness worked out at 0.014 ± 0.038.

With SDLEELEKFAKTFKQRRIKLGFTQGDVGLAMGKLYGNDFSQTTISRFEALNLSFKAMCKLKPLLEKWLNDAESSP [N56A], the abundance fitness is 0.018 ± 0.035.

Consider SDLEELEKFAKTFKQRRIKLGFTQGDVGLAMGKLYGNDFSQTTISRFEALNLSFKLMCKLKPLLEKWLNDAESSP [N56L], for which the abundance fitness was -0.008 ± 0.033.

Turning to SDLEELEKFAKTFKQRRIKLGFTQGDVGLAMGKLYGNDFSQTTISRFEALNLSFKQMCKLKPLLEKWLNDAESSP [N56Q], the abundance fitness was 0.046 ± 0.059.

Consider SDLEELEKFAKTFKQRRIKLGFTQGDVGLAMGKLYGNDFSQTTISRFEALNLSFKPMCKLKPLLEKWLNDAESSP [N56P], for which the abundance fitness was -0.206 ± 0.054.

Take SDLEELEKFAKTFKQRRIKLGFTQGDVGLAMGKLYGNDFSQTTISRFEALNLSFKMMCKLKPLLEKWLNDAESSP [N56M]: the abundance fitness came out at 0.045 ± 0.047.

Regarding SDLEELEKFAKTFKQRRIKLGFTQGDVGLAMGKLYGNDFSQTTISRFEALNLSFKYMCKLKPLLEKWLNDAESSP [N56Y], the abundance fitness was -0.022 ± 0.052.

SDLEELEKFAKTFKQRRIKLGFTQGDVGLAMGKLYGNDFSQTTISRFEALNLSFKSMCKLKPLLEKWLNDAESSP [N56S]: the abundance fitness was -0.035 ± 0.036.

Take SDLEELEKFAKTFKQRRIKLGFTQGDVGLAMGKLYGNDFSQTTISRFEALNLSFKCMCKLKPLLEKWLNDAESSP [N56C]: the abundance fitness was -0.016 ± 0.057.

In the case of SDLEELEKFAKTFKQRRIKLGFTQGDVGLAMGKLYGNDFSQTTISRFEALNLSFKRMCKLKPLLEKWLNDAESSP [N56R], the abundance fitness turned out to be 0.009 ± 0.028.

With SDLEELEKFAKTFKQRRIKLGFTQGDVGLAMGKLYGNDFSQTTISRFEALNLSFKHMCKLKPLLEKWLNDAESSP [N56H], the abundance fitness came to 0.014 ± 0.057.

SDLEELEKFAKTFKQRRIKLGFTQGDVGLAMGKLYGNDFSQTTISRFEALNLSFKIMCKLKPLLEKWLNDAESSP [N56I]: the abundance fitness is -0.034 ± 0.082.
